T1: rNPR1-ANP complex (rat, UniProt P01160 124-151 (human entry), limits assumed)
T1 construct: rNPR1 antigen in the presence of ANP; also called rNPR1 + 100 nM ANP
T1 sequence: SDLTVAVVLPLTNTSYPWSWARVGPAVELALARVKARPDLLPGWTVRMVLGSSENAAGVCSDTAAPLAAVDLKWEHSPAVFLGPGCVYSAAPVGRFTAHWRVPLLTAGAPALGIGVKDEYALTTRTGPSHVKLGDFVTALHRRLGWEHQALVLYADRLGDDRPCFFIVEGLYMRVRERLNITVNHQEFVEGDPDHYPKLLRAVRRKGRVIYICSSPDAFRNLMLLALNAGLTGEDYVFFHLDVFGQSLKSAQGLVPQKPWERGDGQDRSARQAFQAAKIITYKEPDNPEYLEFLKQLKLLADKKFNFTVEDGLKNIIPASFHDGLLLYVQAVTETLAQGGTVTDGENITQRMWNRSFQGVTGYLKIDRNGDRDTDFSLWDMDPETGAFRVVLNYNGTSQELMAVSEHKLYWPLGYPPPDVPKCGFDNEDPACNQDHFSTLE
T1 sequence (peptide): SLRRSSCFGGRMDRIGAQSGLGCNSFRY

T2: hNPR1-ANP complex (human, UniProt P01160 124-151, limits assumed)
T2 construct: hNPR1 antigen in the presence of ANP; also called hNPR1 + 100 nM ANP
T2 sequence: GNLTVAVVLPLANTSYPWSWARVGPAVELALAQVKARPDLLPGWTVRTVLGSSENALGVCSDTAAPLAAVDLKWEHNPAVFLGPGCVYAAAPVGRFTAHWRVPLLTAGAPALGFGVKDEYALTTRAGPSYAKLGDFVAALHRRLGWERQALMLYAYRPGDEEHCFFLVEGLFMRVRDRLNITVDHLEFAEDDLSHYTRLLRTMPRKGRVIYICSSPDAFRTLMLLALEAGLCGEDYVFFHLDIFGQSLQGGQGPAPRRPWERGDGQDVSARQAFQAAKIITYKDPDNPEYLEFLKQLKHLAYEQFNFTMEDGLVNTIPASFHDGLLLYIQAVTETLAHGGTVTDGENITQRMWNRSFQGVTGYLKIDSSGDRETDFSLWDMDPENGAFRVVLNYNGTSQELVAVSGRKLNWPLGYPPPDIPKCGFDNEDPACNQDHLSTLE
T2 sequence (peptide): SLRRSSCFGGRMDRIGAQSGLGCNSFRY

T3: rat NPR1 (rNPR1) (rat, UniProt P18910 29-469, limits assumed)
T3 construct: Soluble antigen
T3 sequence: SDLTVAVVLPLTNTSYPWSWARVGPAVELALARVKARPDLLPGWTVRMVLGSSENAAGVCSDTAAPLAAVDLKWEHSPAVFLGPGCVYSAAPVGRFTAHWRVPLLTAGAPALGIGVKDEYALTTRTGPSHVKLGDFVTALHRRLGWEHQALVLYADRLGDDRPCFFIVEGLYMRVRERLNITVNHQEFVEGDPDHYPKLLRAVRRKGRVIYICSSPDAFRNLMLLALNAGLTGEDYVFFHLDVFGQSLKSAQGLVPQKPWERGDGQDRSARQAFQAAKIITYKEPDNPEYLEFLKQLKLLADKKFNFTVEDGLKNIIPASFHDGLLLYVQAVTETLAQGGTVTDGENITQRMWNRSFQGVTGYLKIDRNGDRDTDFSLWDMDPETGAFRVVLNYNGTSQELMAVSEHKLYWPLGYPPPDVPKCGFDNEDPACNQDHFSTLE

T4: human Natriuretic Peptide Receptor 1 (hNPR1) (human, UniProt P16066 33-473, limits assumed)
T4 construct: pannings used NPR1-hFc; also called NPR1-hFc
T4 sequence: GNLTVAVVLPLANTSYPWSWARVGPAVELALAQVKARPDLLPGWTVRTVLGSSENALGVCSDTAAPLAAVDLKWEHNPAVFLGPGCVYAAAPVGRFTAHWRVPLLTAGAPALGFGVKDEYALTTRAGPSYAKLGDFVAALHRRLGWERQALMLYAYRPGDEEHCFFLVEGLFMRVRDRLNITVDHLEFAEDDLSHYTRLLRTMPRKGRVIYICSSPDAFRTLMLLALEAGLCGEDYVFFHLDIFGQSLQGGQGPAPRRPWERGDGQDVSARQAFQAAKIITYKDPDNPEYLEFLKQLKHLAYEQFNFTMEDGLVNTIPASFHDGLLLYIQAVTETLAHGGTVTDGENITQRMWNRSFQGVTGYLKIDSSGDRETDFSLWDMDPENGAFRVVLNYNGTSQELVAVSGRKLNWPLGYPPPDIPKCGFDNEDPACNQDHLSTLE


Columns and labels:
rNPR1-ANP complex [1] = biological target: T1, rNPR1-ANP complex; experiment: Octet, FabCys
hNPR1-ANP complex [2] = biological target: T2, hNPR1-ANP complex; experiment: Octet, FabCys
rat NPR1 (rNPR1) = biological target: T3, rat NPR1 (rNPR1); experiment: SET, FabCys
[3] = biological target: T4, human Natriuretic Peptide Receptor 1 …; experiment: SET, FabCys
rNPR1-ANP complex [4] = biological target: T1, rNPR1-ANP complex; experiment: SET, FabCys
hNPR1-ANP complex [5] = biological target: T2, hNPR1-ANP complex; experiment: SET, FabCys
[6] = biological target: T4, human Natriuretic Peptide Receptor 1 …; experiment: Octet, FabCys

| Binder | Kd (rNPR1-ANP complex [1]) [nM] | Kd (hNPR1-ANP complex [2]) [nM] | Kd (rat NPR1 (rNPR1)) [nM] | Kd [3] [nM] | Kd (rNPR1-ANP complex [4]) [nM] | Kd (hNPR1-ANP complex [5]) [nM] | Kd [6] [nM] |
| --- | --- | --- | --- | --- | --- | --- | --- |
| ZZ12 (FabCys format) (Fab, V domains shown, Monovalent FabCys) VH: EVQLVESGGGLVQPGGSLRLSCAASGFSFSKYYLNWVRQAPGKGLEWVASIHQQAHEKKYVESVKGRFTISRDNAKNSLYLQMNSLRAEDTAVYYCARSLRRRSTEHAGFDVWGQGTLVTVSS VL: DIQMTQSPSSLSASVGDRVTITCRASQGISNYLAWYQQKPGKVPKLLIYAASTLQSGVPSRFSGSGSGTDFTLTISSLQPEDVATYYCQQADKFPYTFGQGTKVEIK | 0.1 | 0.04 | 2.1 | 6.7 | 1.4 | 0.32 |  |
| ZZ15 (FabCys format) (Fab, V domains shown, Monovalent FabCys) VH: EVQLLESGGGLVQPGGSLRLSCAASGFTFASYAITWVRQAPGKGLEWVSTISGSGVYTYYAESVKGRFTISRDNSKNTLYLQMNSLRAEDTAVYYCARPYLGDRRSYGFDHWGQGTLVTVSS VL: QSALTQPASVSGSPGQSITISCTGTSSDVGSYNLVSWYQQHPGKAPKLMIYEGSKRPSGVSNRFSGSKSGNTASLTISGLQAEDEADYYCSSYGFHIVVVVFGGGTKLTVL |  | 0.19 |  | 0.053 |  | 0.074 | 0.26 |
